This passage reports peptide exchange yield results from US20220249633A1.

Bounds are passed on as bounds.

This assay deals with HLA-A*24 (human). Briefly: UV-exchange ELISA, exchange yield grade. On the technique in general: In an ELISA, binding on a coated surface is turned into a signal by an enzyme label.
VYIESRIGTSTSF [… (SEQ ID NO: 100)] had a peptide exchange yield of 50 to 75%.

For the molecule TYTFLKETF [… (SEQ ID NO: 97)], the peptide exchange yield was > 75%.

The molecule IYPEWPVVFF [… (SEQ ID NO: 136)] displayed a peptide exchange yield of 50 to 75%.

For SYLTWHQQI [… (SEQ ID NO: 104)], the peptide exchange yield is > 75%.

As to EYQARIPEF [… (SEQ ID NO: 122)], the peptide exchange yield is 50 to 75%.

On to LFITGGQFF [… (SEQ ID NO: 109)], for which the peptide exchange yield was > 75%.

For the molecule GYIEHFSLW [… (SEQ ID NO: 120)], the peptide exchange yield was > 75%.

RYGFYYVEF [… (SEQ ID NO: 167)] had a peptide exchange yield of 50 to 75%.

As to YYMELTKLLL [… (SEQ ID NO: 156)], the peptide exchange yield is > 75%.

For the molecule VYEAMVPLF [… (SEQ ID NO: 135)], the peptide exchange yield is > 75%.

LYLAFPLAF [… (SEQ ID NO: 147)] showed a peptide exchange yield of 50 to 75%.

As to HYVPATKVF [… (SEQ ID NO: 164)], the peptide exchange yield lay within 50 to 75%.

As to SYNGHLTIWF [… (SEQ ID NO: 141)], the peptide exchange yield lay within 50 to 75%.

Molecule NYYERIHAL [… (SEQ ID NO: 146)] had a peptide exchange yield of 50 to 75%.

For RYLINSYDF [… (SEQ ID NO: 140)], the peptide exchange yield is > 75%.

Turning to IYNETITDLL [… (SEQ ID NO: 105)], the peptide exchange yield was in the range of 50 to 75%.

With TYKDYVDLF [… (SEQ ID NO: 124)], the peptide exchange yield was < 20%.

For RYLNKSFVL [… (SEQ ID NO: 115)], the peptide exchange yield was in the range of 50 to 75%.

Molecule VYPFENFEF [… (SEQ ID NO: 102)] had a peptide exchange yield of 50 to 75%.

Take KYLNSVQYI [… (SEQ ID NO: 118)]: the peptide exchange yield lay within 50 to 75%.

VFSRDFGLLVF [… (SEQ ID NO: 125)] came in with a peptide exchange yield of 50 to 75%.

SYPKIIEEF [… (SEQ ID NO: 110)]: the peptide exchange yield is 50 to 75%.

The molecule RYGLPAAWSTF [… (SEQ ID NO: 121)] showed a peptide exchange yield of 50 to 75%.

Turning to FYTLPFHLI [… (SEQ ID NO: 166)], the peptide exchange yield is > 75%.

As to KYIFQLNEI [… (SEQ ID NO: 143)], the peptide exchange yield lay within 50 to 75%.

Turning to DYIPASGFALF [… (SEQ ID NO: 157)], the peptide exchange yield was 50 to 75%.

Molecule NYEDHFPLL [… (SEQ ID NO: 171)] gave a peptide exchange yield of 50 to 75%.

As for PYLVVIHTL [… (SEQ ID NO: 108)], the peptide exchange yield fell in the range of 50 to 75%.

IYLSDLTYI [… (SEQ ID NO: 117)]: the peptide exchange yield lay within 50 to 75%.

Turning to QYPFHVPLL [… (SEQ ID NO: 170)], the peptide exchange yield was > 75%.

Regarding VFASLPGFLF [… (SEQ ID NO: 144)], the peptide exchange yield was > 75%.

VYRVYVTTF [… (SEQ ID NO: 119)] yielded a peptide exchange yield of 50 to 75%.

For the molecule QYFTGNPLF [… (SEQ ID NO: 127)], the peptide exchange yield is 50 to 75%.

On to QYLDGTWSL [… (SEQ ID NO: 114)], for which the peptide exchange yield is > 75%.

In turn, KYFPYLVVI [… (SEQ ID NO: 107)] registered a peptide exchange yield of 50 to 75%.

In the case of EYFTPLLSGQF [… (SEQ ID NO: 165)], the peptide exchange yield was in the range of 50 to 75%.

Regarding VYVPFGGKSMITF [… (SEQ ID NO: 153)], the peptide exchange yield was > 75%.

On to EYLHNCSYF [… (SEQ ID NO: 137)], for which the peptide exchange yield was > 75%.

Regarding VYNAVSTSF [… (SEQ ID NO: 138)], the peptide exchange yield lay within 20 to 49%.

Consider KYIDYLMTW [… (SEQ ID NO: 129)], for which the peptide exchange yield is > 75%.

With VYVQILQKL [… (SEQ ID NO: 111)], the peptide exchange yield is 50 to 75%.

Turning to VYPFDWQYI [… (SEQ ID NO: 128)], the peptide exchange yield was > 75%.

Turning to SYGTVSQI [SYGTVSQI (SEQ ID NO: 149)], the peptide exchange yield is > 75%.

As for RYGDGGSSF [… (SEQ ID NO: 160)], the peptide exchange yield lay in the range of 50 to 75%.

On to QYILAVPVL [… (SEQ ID NO: 99)], for which the peptide exchange yield was > 75%.

Turning to IYEETRGVL [… (SEQ ID NO: 159)], the peptide exchange yield is 50 to 75%.

KYPDIVQQF [… (SEQ ID NO: 161)] gave a peptide exchange yield of 50 to 75%.

As for AYVIAVHLF [… (SEQ ID NO: 116)], the peptide exchange yield was > 75%.

With RYLTISNLQF [… (SEQ ID NO: 163)], the peptide exchange yield is > 75%.

Turning to IFGIFPNQF [… (SEQ ID NO: 139)], the peptide exchange yield was 50 to 75%.

Take NYIPVKNGKQF [… (SEQ ID NO: 103)]: the peptide exchange yield lay in the range of 50 to 75%.

The molecule KFFDDLGDELLF [… (SEQ ID NO: 152)] showed a peptide exchange yield of 20 to 49%.

For RYLEAALRL [… (SEQ ID NO: 168)], the peptide exchange yield fell in the range of 50 to 75%.

For KYTSYILAF [… (SEQ ID NO: 162)], the peptide exchange yield fell in the range of 20 to 49%.

AYIPTPIYF [… (SEQ ID NO: 134)]: the peptide exchange yield lay within 50 to 75%.

VFPRLHNVLF [… (SEQ ID NO: 98)]: the peptide exchange yield was in the range of 50 to 75%.

Molecule EYLDRIGQLFF [… (SEQ ID NO: 131)] registered a peptide exchange yield of 50 to 75%.

Take IYKWITDNF [… (SEQ ID NO: 155)]: the peptide exchange yield was > 75%.

On to VYALKVRTI [… (SEQ ID NO: 145)], for which the peptide exchange yield lay in the range of 50 to 75%.

Regarding SYGTVSQIF [… (SEQ ID NO: 148)], the peptide exchange yield is > 75%.

As to RYPALFPVL [… (SEQ ID NO: 132)], the peptide exchange yield was > 75%.

IYNFVESKL [… (SEQ ID NO: 112)] gave a peptide exchange yield of 50 to 75%.

Take IYNETVRDLL [… (SEQ ID NO: 106)]: the peptide exchange yield is 50 to 75%.

As to VYGVPTPHF [… (SEQ ID NO: 154)], the peptide exchange yield is > 75%.

In turn, IYSFHTLSF [… (SEQ ID NO: 113)] showed a peptide exchange yield of 50 to 75%.

For the molecule KYLEDMKTYF [… (SEQ ID NO: 133)], the peptide exchange yield lay within 50 to 75%.

Take YYTQYSQTI [… (SEQ ID NO: 96)]: the peptide exchange yield was > 75%.

VYTPVLEHL [… (SEQ ID NO: 123)] came in with a peptide exchange yield of 20 to 49%.

Regarding NYITGKGDVF [… (SEQ ID NO: 169)], the peptide exchange yield lay in the range of 50 to 75%.
